Results from the supplement of paper PMC10567573.

B1: ATE1 (parent)
chain: YGSFHQQYWLDGKIIAVGVIDILP

Variants of: B1
Assay: protein stability index of a GFP-peptide fusion (GPS, HEK-293T) (PSI 1-6); higher = more stable
Details: c terminus: a fixed tail appended
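Further: lentivirally expressed fusions sorted by FACS into six bins by GFP to DsRed ratio, PSI derived from sequencing read proportions per bin multiplied by bin number.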

| Variant | protein stability index |
| --- | --- |
| YGSFHQQNWLDGKIIAVGVIDILP | 3.57 |
| YGSFHQQFWLDGKIIAVGVIDILP | 3.62 |
| YGSFHQQIWLDGKIIAVGVIDILP | 3.92 |
| YGSFHQQQWLDGKIIAVGVIDILP | 3.04 |
| YGSFHQQPWLDGKIIAVGVIDILP | 2.93 |
| YGSFHQQKWLDGKIIAVGVIDILP | 2.35 |
| YGSFHQQHWLDGKIIAVGVIDILP | 2.57 |
| YGSFHQQDWLDGKIIAVGVIDILP | 2.78 |
| YGSFHQQWWLDGKIIAVGVIDILP | 2.58 |
| YGSFHQQYWLTGKIIAVGVIDILP | 3.15 |
| YGSFHQQYWLPGKIIAVGVIDILP | 2.24 |
| YGSFHQQYWLWGKIIAVGVIDILP | 2.72 |
| YGSFHQQYWLHGKIIAVGVIDILP | 2.8 |
| YGSFHQQYWLIGKIIAVGVIDILP | 2.1 |
| YGSFHQQYWLAGKIIAVGVIDILP | 4.43 |
| YGSFHQQYWLKGKIIAVGVIDILP | 3.39 |
| YGSFHQQYWLVGKIIAVGVIDILP | 2.38 |
| YGSFHQQYWLSGKIIAVGVIDILP | 2.47 |
| YGSFHQQYWLNGKIIAVGVIDILP | 3.47 |
| YGSFHQQYWLGGKIIAVGVIDILP | 1.06 |
| YGSFHQQYWLFGKIIAVGVIDILP | 3.33 |
| YGSFHTQYWLDGKIIAVGVIDILP | 3.63 |
| YGSFHWQYWLDGKIIAVGVIDILP | 1.19 |
| YGSFHYQYWLDGKIIAVGVIDILP | 2.43 |

| Variant | protein stability index |
| --- | --- |
| YGSFHQQYNLDGKIIAVGVIDILP | 1.9 |
| YGSFHQQYSLDGKIIAVGVIDILP | 2.48 |
| YGSFHQQYHLDGKIIAVGVIDILP | 3.06 |
| YGSFHQQYILDGKIIAVGVIDILP | 3.29 |
| YGSFHQQYALDGKIIAVGVIDILP | 2.18 |
| YGSFHQQYRLDGKIIAVGVIDILP | 3.46 |
| YGSFHQQYYLDGKIIAVGVIDILP | 2.97 |
| YGSFHQQYPLDGKIIAVGVIDILP | 3.09 |
| YGSFHQQYQLDGKIIAVGVIDILP | 1.69 |
| YGSFHQQYELDGKIIAVGVIDILP | 2.26 |
| YGSFHQQYKLDGKIIAVGVIDILP | 3.09 |
| YGSFHQQYVLDGKIIAVGVIDILP | 3.47 |
| YGSFHQQYCLDGKIIAVGVIDILP | 2.17 |
| YGSFHQQYLLDGKIIAVGVIDILP | 3.27 |
| YGSFHQQYMLDGKIIAVGVIDILP | 1.98 |
| YGSFHQQYDLDGKIIAVGVIDILP | 2.53 |
| YGSFHQQYWPDGKIIAVGVIDILP | 3.12 |
| YGSFHQQYWHDGKIIAVGVIDILP | 2.42 |
| YGSFHQQYWQDGKIIAVGVIDILP | 3.96 |
| YGSFHQQYWIDGKIIAVGVIDILP | 3.3 |
| YGSFHQQYWTDGKIIAVGVIDILP | 1.74 |
| YGSFHQQYWRDGKIIAVGVIDILP | 2.32 |
| YGSFHQQYWWDGKIIAVGVIDILP | 2.66 |
| YGSFHQQYWKDGKIIAVGVIDILP | 3.17 |

| Variant | protein stability index |
| --- | --- |
| YGSFHQQYWEDGKIIAVGVIDILP | 2.75 |
| YGSFHQQYWDDGKIIAVGVIDILP | 2.64 |
| YGSFHQQYWYDGKIIAVGVIDILP | 1.97 |
| YGSFHQQYWCDGKIIAVGVIDILP | 2.9 |
| YGSFHQQYWNDGKIIAVGVIDILP | 3.14 |
| YGSFHQQYWSDGKIIAVGVIDILP | 3.74 |
| YGSFHQQYWMDGKIIAVGVIDILP | 2.16 |
| YGSFHQQYWVDGKIIAVGVIDILP | 3.17 |
| YGSFHQQYWLDSKIIAVGVIDILP | 1.91 |
| YGSFHQQYWLDVKIIAVGVIDILP | 2.04 |
| YGSFHQQYWLDNKIIAVGVIDILP | 2.45 |
| YGSFHQQYWLDRKIIAVGVIDILP | 3.98 |
| YGSFHQQYWLDQKIIAVGVIDILP | 2.45 |
| YGSFHQQYWLDDKIIAVGVIDILP | 2.68 |
| YGSFHQQYWLDTKIIAVGVIDILP | 3.42 |
| YGSFHQQYWLDIKIIAVGVIDILP | 3.89 |
| YGSFHQQYWLDAKIIAVGVIDILP | 2.54 |
| YGSFHQQYWLDKKIIAVGVIDILP | 2.14 |
| YGSFHQQYWLDCKIIAVGVIDILP | 2.02 |
| YGSFHQFYWLDGKIIAVGVIDILP | 2.02 |
| YGSFHQAYWLDGKIIAVGVIDILP | 4.84 |
| YGSFHQGYWLDGKIIAVGVIDILP | 3.84 |
| YGSFHQWYWLDGKIIAVGVIDILP | 4.02 |
| YGSFHQIYWLDGKIIAVGVIDILP | 2.67 |

| Variant | protein stability index |
| --- | --- |
| YGSFHQHYWLDGKIIAVGVIDILP | 2.4 |
| YGSFHQRYWLDGKIIAVGVIDILP | 2.99 |
| YGSFHQLYWLDGKIIAVGVIDILP | 2.01 |
| YGSFHQDYWLDGKIIAVGVIDILP | 2.72 |
| YGSFHQSYWLDGKIIAVGVIDILP | 4.74 |
| YGSFHQTYWLDGKIIAVGVIDILP | 3.51 |
| YGSFHQPYWLDGKIIAVGVIDILP | 2.94 |
| YGSFHQMYWLDGKIIAVGVIDILP | 1.76 |
| YGSFHQCYWLDGKIIAVGVIDILP | 3.33 |
| YGSFHQQYWLDGNIIAVGVIDILP | 2.78 |
| YGSFHQQYWLDGRIIAVGVIDILP | 2 |
| YGSFHQQYWLDGAIIAVGVIDILP | 2.3 |
| YGSFHQQYWLDGFIIAVGVIDILP | 2.76 |
| YGSFHQQYWLDGIIIAVGVIDILP | 1.1 |
| YGSFHQQYWLDGEIIAVGVIDILP | 2.45 |
| YGSFHQQYWLDGTIIAVGVIDILP | 2.54 |
| YGSFHQQYWLDGMIIAVGVIDILP | 3.74 |
| YGSFHQQYWLDGVIIAVGVIDILP | 2.63 |
| YGSFHQQYWLDGPIIAVGVIDILP | 2.99 |
| YGSFHQQYWLDGDIIAVGVIDILP | 2.19 |
| YGSFHQQYWLDGCIIAVGVIDILP | 2.44 |
| YGSFHQQYWLDGLIIAVGVIDILP | 3.1 |
